# In US20220154204:
# Tests used:
# GST-OST1/SnRK2.6 (D140A) = GST-OST1/SnRK2.6 (D140A) (UniProt Q940H6)
# [1] = target: T1, dephosphorylated recombinant His-OST1/SnRK2.6 (UniProt Q940H6)
# T1 sequence: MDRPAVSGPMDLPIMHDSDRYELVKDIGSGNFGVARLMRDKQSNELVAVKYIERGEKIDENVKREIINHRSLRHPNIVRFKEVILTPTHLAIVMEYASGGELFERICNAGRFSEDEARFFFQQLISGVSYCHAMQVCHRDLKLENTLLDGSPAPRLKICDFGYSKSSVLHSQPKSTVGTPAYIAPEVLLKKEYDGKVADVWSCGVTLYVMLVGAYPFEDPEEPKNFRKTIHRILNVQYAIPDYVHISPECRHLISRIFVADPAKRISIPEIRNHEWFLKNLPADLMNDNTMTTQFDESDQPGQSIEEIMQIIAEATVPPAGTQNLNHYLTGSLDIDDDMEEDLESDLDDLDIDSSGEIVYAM
# GST-SnRK2.3 = target: T2, GST-SnRK2.3 (UniProt Q39193)
# T2 sequence: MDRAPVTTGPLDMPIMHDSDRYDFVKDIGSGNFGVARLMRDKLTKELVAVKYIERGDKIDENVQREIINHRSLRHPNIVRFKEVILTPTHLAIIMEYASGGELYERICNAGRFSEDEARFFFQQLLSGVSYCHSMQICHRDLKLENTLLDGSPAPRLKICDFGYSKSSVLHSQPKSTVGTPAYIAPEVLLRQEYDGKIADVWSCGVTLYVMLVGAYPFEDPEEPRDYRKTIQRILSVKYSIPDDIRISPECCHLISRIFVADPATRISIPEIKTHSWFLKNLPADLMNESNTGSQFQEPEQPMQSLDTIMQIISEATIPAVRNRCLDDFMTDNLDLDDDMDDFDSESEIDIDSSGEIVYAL
# GST-OST1/SnRK2.6 = GST-OST1/SnRK2.6 (UniProt Q940H6)
# GST-SnRK2.4 = target: T3, GST-SnRK2.4 (UniProt P43291)
# T3 sequence: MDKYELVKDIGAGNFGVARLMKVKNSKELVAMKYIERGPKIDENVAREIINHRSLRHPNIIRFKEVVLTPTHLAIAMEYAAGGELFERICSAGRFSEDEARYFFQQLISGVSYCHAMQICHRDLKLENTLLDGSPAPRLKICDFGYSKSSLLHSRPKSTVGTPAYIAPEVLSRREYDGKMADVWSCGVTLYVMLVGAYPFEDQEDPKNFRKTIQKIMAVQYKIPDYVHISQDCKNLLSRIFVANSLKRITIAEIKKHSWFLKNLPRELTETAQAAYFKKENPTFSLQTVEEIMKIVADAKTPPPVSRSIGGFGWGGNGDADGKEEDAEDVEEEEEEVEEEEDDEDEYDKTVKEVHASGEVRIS
# GST-SnRK2.2 = target: T4, GST-SnRK2.2 (UniProt Q39192)
# T4 sequence: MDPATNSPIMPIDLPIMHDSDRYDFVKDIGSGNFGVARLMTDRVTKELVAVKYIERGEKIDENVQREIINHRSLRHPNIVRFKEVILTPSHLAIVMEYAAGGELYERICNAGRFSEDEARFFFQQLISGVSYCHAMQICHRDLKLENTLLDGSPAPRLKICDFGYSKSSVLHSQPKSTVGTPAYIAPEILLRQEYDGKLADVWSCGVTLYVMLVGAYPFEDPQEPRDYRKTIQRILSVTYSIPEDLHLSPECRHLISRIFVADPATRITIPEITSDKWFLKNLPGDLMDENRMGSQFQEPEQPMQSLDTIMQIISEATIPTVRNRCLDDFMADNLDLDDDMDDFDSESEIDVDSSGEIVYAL
# Chain of CPK23 (chain, as listed by the source): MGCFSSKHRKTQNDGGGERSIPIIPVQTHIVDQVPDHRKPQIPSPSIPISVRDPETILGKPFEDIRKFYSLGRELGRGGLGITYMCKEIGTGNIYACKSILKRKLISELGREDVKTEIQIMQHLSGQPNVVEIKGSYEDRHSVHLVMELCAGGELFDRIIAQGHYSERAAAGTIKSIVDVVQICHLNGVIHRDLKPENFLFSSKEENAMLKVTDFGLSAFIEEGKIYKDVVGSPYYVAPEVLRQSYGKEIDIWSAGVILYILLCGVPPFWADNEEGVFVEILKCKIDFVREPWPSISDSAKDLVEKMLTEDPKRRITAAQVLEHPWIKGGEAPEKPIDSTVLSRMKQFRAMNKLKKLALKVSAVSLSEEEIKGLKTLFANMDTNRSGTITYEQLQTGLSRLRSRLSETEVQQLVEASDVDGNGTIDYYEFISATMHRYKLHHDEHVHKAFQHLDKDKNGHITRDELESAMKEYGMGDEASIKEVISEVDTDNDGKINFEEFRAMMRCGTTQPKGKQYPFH
Substance,in vitro phosphorylation assay with 32P-ATP (GST-OST1/SnRK2.6 (D140A)),"OST1/SnRK2.6 activity, in-gel kinase assay in vitro [1]","SnRK2 kinase activity, in-gel kinase assay in vitro (GST-SnRK2.3)",further results
GST-M3Kδ6 kinase domain,"the M3Kδ1, 66 and 67 kinase domains directly phosphorylated the kinase inactive OST1/SnRK2.6 (D140A) mutant isoform","three M3Ks from the subgroup B3, named M3Kδ1, 66 and 67, were found to strongly activate OST1/SnRK2.6",SnRK2.3 was also activated by M3Kδ6 and M3Kδ7,
GST-M3Kδ1 kinase domain,"the M3Kδ1, 66 and 67 kinase domains directly phosphorylated the kinase inactive OST1/SnRK2.6 (D140A) mutant isoform","three M3Ks from the subgroup B3, named M3Kδ1, 66 and 67, were found to strongly activate OST1/SnRK2.6",M3Kδ1 strongly activated SnRK2.2 and 2.3,"phosphorylation sites by LC-MS/MS after in vitro phosphorylation (GST-OST1/SnRK2.6 (D140A)): M3Kδ1 phosphorylated the OST1/SnRK2.6 residues Ser171, Ser175 and Thr176 in the OST1 activation loop; OST1/SnRK2.6 activity, in-gel kinase assay in vitro (GST-OST1/SnRK2.6): the truncated kinase domain (M3Kδ1_KD) has a higher activity than the full length M3Kδ1 protein (M3Kδ1_Full); SnRK2 kinase activity, in-gel kinase assay in vitro (GST-SnRK2.4): M3Kδ1 also activated SnRK2.4 kinase in vitro; SnRK2 kinase activity, in-gel kinase assay in vitro (GST-SnRK2.2): M3Kδ1 strongly activated SnRK2.2 and 2.3"
full-length His-M3Kδ1,,,,"OST1/SnRK2.6 activity, in-gel kinase assay in vitro (GST-OST1/SnRK2.6): Full-length M3Kδ1 activates OST1/SnRK2.6 in vitro"
GST-M3Kδ7 kinase domain,"the M3Kδ1, 66 and 67 kinase domains directly phosphorylated the kinase inactive OST1/SnRK2.6 (D140A) mutant isoform","three M3Ks from the subgroup B3, named M3Kδ1, 66 and 67, were found to strongly activate OST1/SnRK2.6",SnRK2.3 was also activated by M3Kδ6 and M3Kδ7,
CPK23,,,,in vitro phosphorylation assay with 32P-ATP after dephosphorylation of OST1 (GST-OST1/SnRK2.6): did not phosphorylate OST1/SnRK2.6 after dephosphorylation
M3Kδ6 kinase domain mutant (K775W),,"OST1/SnRK2 kinase activation was not induced by an inactive mutant M3K kinase protein, M3Kδ6 (K775W)",,
CPK6,,,,in vitro phosphorylation assay with 32P-ATP after dephosphorylation of OST1 (GST-OST1/SnRK2.6): did not phosphorylate OST1/SnRK2.6 after dephosphorylation
